In this experiment the target is T1, hydroxylated His-AtHPPD (under oxidative stress, H2O2) (Arabidopsis thaliana), P93836.
T1 chain: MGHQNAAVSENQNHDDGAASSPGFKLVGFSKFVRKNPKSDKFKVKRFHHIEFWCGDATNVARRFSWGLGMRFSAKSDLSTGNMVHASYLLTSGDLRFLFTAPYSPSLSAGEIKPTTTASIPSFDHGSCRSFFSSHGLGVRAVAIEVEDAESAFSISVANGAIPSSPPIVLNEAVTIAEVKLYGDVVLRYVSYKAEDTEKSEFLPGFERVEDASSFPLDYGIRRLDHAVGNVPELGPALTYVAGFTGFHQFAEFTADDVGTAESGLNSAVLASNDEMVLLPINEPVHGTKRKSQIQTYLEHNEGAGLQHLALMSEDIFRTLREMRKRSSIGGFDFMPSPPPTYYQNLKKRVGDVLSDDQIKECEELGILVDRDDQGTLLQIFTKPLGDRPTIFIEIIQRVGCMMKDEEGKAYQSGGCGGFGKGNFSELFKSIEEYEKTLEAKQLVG
Briefly: MST; as the MST of untreated His-AtHPPD, but AtHPPD under oxidative stress (H2O2, concentration not stated); GST-PUB11-ARM serially diluted; 25°C; 20 mM HEPES pH 8.0, 100 mM NaCl.

Drawing on publication PMC12785156, this text covers Kd for one molecule.

B1: GST-PUB11-ARM (domain or fragment)
chain: QPAGYINGRTKNSGDMSVIRALVQRLSSRSTEDRRNAVSEIRSLSKRSTDNRILIAEAGAIPVLVNLLTSEDVATQENAITCVLNLSIYENNKELIMFAGAVTSIVQVLRAGTMEARENAAATLFSLSLADENKIIIGGSGAIPALVDLLENGTPRGKKDAATALFNLCIYHGNKGRAVRAGIVTALVKMLSDSTRHRMVDEALTILSVLANNQDAKSAIVKANTLPALIGILQTDQTRNRENAAAILLSLCKRDTEKLITIGRLGAVVPLMDLSKNGTERGKRKAISLLELLRKACQ
modifications: not checked
For the molecule B1, the Kd (as a rule, the free concentration of one partner at which half of the binding sites on the other are occupied at equilibrium, for simple one-to-one binding) amounted to 2930 nM.
